Experimental findings from patent US20210355229A1 (JIANGSU HENGRUI MEDICINE, published 2021) are described below.

Numbering of substitutions follows the chain as printed. Where two headings read alike, the source gives them in different places.

In test [1] the target is T1, human OX40-FC-biotin (human OX40 recombinant protein with Fc tag, Acro Biosystems OX40-H5255, labeled with … (human, UniProt P43489 29-216, labeled with biotin (site not stated))).
T1 construct: range 29-216; Bought (Acro Biosystems OX40-H5255; printed once as OXO-H5255), expressed in HEK293; also called human Bio-OX40-FC; not shown: Fc tag of the bought protein
T1 sequence (looked up): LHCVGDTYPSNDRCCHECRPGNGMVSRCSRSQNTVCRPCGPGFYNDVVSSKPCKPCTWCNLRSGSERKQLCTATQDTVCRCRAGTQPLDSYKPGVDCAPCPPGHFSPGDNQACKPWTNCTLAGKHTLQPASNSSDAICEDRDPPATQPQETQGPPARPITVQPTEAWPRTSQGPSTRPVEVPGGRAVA
Description: blocking ELISA: OX40L coated, biotin-OX40-Fc pre-incubated with antibody, SA-HRP. How it is done:
The well-plate was coated with the OX40 ligand (Acrobiosystem, OXL-H52Q8), blocked, added the gradient-diluted antibody to be tested (the antibody was diluted in a solution comprising human Bio-OX40-FC (Acrobiosystem, OX40-H5255, labeled with biotin), pre-incubated for 40 minutes, and then added into the plate), incubated for 40 minute, and washed. SA-HRP (Jackson Immunoresearch, 016-030-084) was then added and incubated for 40min. The developing solution and stop solution were added, and the OD value was measured.
(In general: In an ELISA, binding on a coated surface is turned into a signal by an enzyme label.)

For test [2], the target named is T2, human OX40 on Jurkat-NF-Kb luc-hOX40 cells (human, UniProt P43489 29-277).
T2 sequence (looked up): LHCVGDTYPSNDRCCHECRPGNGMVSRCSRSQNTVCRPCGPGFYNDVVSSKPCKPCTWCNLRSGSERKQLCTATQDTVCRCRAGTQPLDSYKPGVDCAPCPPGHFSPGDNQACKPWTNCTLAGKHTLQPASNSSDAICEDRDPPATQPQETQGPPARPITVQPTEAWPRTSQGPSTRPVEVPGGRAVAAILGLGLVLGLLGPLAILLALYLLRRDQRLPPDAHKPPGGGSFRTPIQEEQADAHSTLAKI
Description: cell-based or functional assay.

The target in test [3] is T3, human OX40-His protein (sinobiological # 10481-H08H) (human, UniProt P43489 29-216).
T3 construct: Bought; analyte in Biacore; not shown: His tag
T3 sequence (looked up): T1 sequence (looked up)
Nature of the test: SPR (Biacore T200), antibody coupled to CM5 chip, OX40-His as analyte, 1:1 model. How it is done:
Using the kit provided by Biacore, the recombinant anti-OX40 antibody to be tested of the present invention was covalently connected to the CM5 (GE) chip by NHS standard amino coupling method. A series of concentration gradients of human OX40-His protein (sinobiological # 10481-H08H) diluted in the same buffer were then loaded into each cycle at a flow rate of 30 μL/min. After loading, the chip was regenerated using regeneration reagent provided in the kit. The antigen-antibody binding kinetics was traced for 3 minutes, and the dissociation kinetics was traced for 10 minutes. The resulting data were analyzed by using BIAevaluation software (GE) with 1:1 (Langmuir) binding model.
Background: SPR reads the build-up and loss of mass on a sensor chip optically.

For test [4], the target named is T1, human OX40-FC-biotin (human OX40 …). Nature of the test: capture ELISA, biotin-OX40-Fc. How it is done:
20xPBS buffer was diluted to 1 xwith deionized water. […] 100 μL of the diluted primary antibody was added to each well (the antibody to be tested was 5-fold diluted from the concentration of 10000 ng/ml, resulting in seven gradients, namely 10000 ng/ml, 2000 ng/ml, 400 ng/ml, 80 ng/ml, 16 ng/ml, 3.2 ng/ml, and 0.64 ng/ml, blank wells merely contained dilution solution, i.e., 2.5% skimmed milk in PBST), and incubated at 37° C. for 40 minutes. The plate was washed for 4 times with PBST, human OX40-FC-biotin (Acro biosystem, OXO-H5255, labeled biotin) was diluted with 2.5% skimmed milk in PBST, 100 μl was added to each well, incubated at 37° C. for 40 min, and the plate was washed for 4 times with PB ST. 100 μL TMB developing solution was added to each well, incubated for 3-15 minutes in dark at room temperature, 50 μl stop solution (1M sulfuric acid) was added to each well. The parameters were set for the microplate reader, the OD value was read at 450-630nm, and the test data were saved.

In test [5] the target is T2, human OX40 on Jurkat-NF-Kb luc-hOX40 …. Nature of the test: cell-based or functional assay. This is another data set of the same source.
For test [6], the target named is T4, human OX40 (antigen of the ELISA of Example 4) (human, UniProt P43489 29-216, limits assumed).
T4 construct: either human OX40-His or human OX40-Fc-biotin
T4 sequence (looked up): T1 sequence (looked up)
Nature of the test: ELISA on human OX40 (Example 4, steps as in Example 2), OD450 against log concentration of antibody.

Test [7] has as its target T4, human OX40 (antigen of the ELISA of …). The description is as above. This is another data set of the same source.

B1: humanized antibody 2G3 (antibody, human IgG1, kappa, V domains shown)
VH: QVQLQESGPGLVKPSETLSLTCTVSGYSISRYSVHWVRQPPGKGLEWIGMIWDGGNTDYNAALKSRFTISRDNAKNTLYLQMNSLRAEDTAVYYCARNPLYFSYAMDYWGQGTLVTVSS
VL: DIQMTQSPSSLSASVGDRVTITCRASQDISNYLNWYQQKPDQSPKLLIIYTSRLQSGVPSRFSGSGSGTDYTLTISSLQPEDFATYYCQQVNTFPFTFGQGTKLEIKR
notes: also called 2G3 (hu2G3 VH1.1 + hu2G3 VL1)
For B1, the IC50 – broadly, the concentration that gives 50% inhibition – in test [1] stood at 1.88 nM. In addition, the “EC50 (nM), activation of reporter gene (luciferase, Jurkat-NF-Kb luc-hOX40 cells with Raji cells, anti-CD3 coated)” value in test [2] came to 2.29 nM. For the same molecule, in test [3], the affinity, expressed as Kd, was 4.63 nM; the koff (usually a measure of how fast the partners let go of each other) was determined as 0.00202 s⁻¹; the kon (commonly a measure of how fast the partners come together) was determined as 437000 M⁻¹ s⁻¹.

B2: humanized antibody 2G3-hu3 (antibody, human IgG1, V domains shown)
VH: B1 VH with A61S, A74S
VL: DIQMTQSPSSLSASVGDRVTITCRASQDISNYLNWYQQKPGKAPKLLIYYTSRLQSGVPSRFSGSGSGTDYTLTISSLQPEDFATYYCQQVNTFPFTFGQGTKLEIK
notes: hu2G3 VH1 + hu2G3 VL2
B2: in test [4], the binding result was “binds”.

B3: humanized antibody 2G3-hu1 (antibody, human IgG1, V domains shown)
VH: B1 VH with A61S, A74S
VL: B2 VL with G41D, K42Q, A43S, Y49I
notes: hu2G3 VH1 + hu2G3 VL1
Take B3: the EC50 – broadly, the concentration that produces a half-maximal response – in test [4] came to 0.886 µg/mL.

B4: humanized antibody 2G3-hu7 (antibody, human IgG1, V domains shown)
VH: QVQLQESGPGLVKPSQTLSLTCTVSGFSLSRYSVHWVRQPPGKGLEWIGMIWDGGNTDYAAPVKGRFTISRDDSKNTLYLQMNSLKTEDTAVYYCARNPLYFSYAMDYWGQGTLVTVSS
VL: B2 VL
notes: hu2G3 VH1.2 + hu2G3 VL2
With B4, the EC50 in test [4] stood at 0.743 µg/mL.

B5: humanized antibody 2G3-hu5 (antibody, human IgG1, V domains shown)
VH: B1 VH
VL: B2 VL
notes: hu2G3 VH1.1 + hu2G3 VL2
As for B5, the binding result in test [4] was “binds”.

B6: chimeric antibody Ch2G3 (antibody, V domains shown)
VH: QVQLKESGPGLVASSQSLSITCTVSGFSLSRYSVHWVRQPPGKGLEWLGMIWDGGNTDYNSALKSRLSISKDNSKSQVFLKMNSLQTDDTAMYYCARNPLYFSYAMDYWGQGTSVTVSS
VL: DIQMTQSTSSLSASLGDRVTISCRASQDISNYLNWYQQKPDGTVKLLIIYTSRLQSGVPSRFSGSGSGTDYSLTISNLEQEDIATYFCQQVNTFPFTFGSGTKLEIK
For the molecule B6, the “EC50 (nM), in vitro activation of reporter gene (luciferase, Jurkat-NF-Kb luc-hOX40 cells with Raji cells, anti-CD3 coated)” value in test [5] turned out to be 0.637 nM. The EC50 (read off the curve) (as a rule, the concentration needed to bring the measured effect to its halfway point) in test [6] was around 0.01 µg/mL.

B7: murine monoclonal antibody m2G3 (antibody, V domains shown)
VH: B6 VH
VL: B6 VL
notes: Murine hybridoma monoclonal
On to B7, for which, in test [6], the concentration giving a half-maximal response (EC50 (read off the curve)) was around 0.03 µg/mL. Further, in test [4], the EC50 was determined as 0.867 µg/mL.

B8: murine monoclonal antibody m4B5 (antibody, V domains shown)
VH: QVQLKQSGPGLVQPSQSLSITCTVSGFSLTSYGLHWFRQSPGKGLEWLGVIWSGGSTDYNAAFISRLSISKDDSKSQVFFKMNSLQADDTAIYYCAREEYDVWGTGTTVTVSS
VL: B6 VL with S7T, T8A, I49Y, Q55H, I83V, V91G, F94L, F96W, S100G
notes: Murine hybridoma monoclonal
For the molecule B8, in test [7], the “EC50 (read off the curve)” value was around 0.04 µg/mL. Also, in test [4], the EC50 was found to be 0.58 µg/mL.

B9: chimeric antibody Ch4B5 (antibody, V domains shown)
VH: B8 VH
VL: B6 VL with S7T, T8A, I49Y, Q55H, I83V, V91G, F94L, F96W, S100G
As to B9, in test [5], the “EC50 (nM), in vitro activation of reporter gene (luciferase, Jurkat-NF-Kb luc-hOX40 cells with Raji cells, anti-CD3 coated)” value amounted to 0.559 nM. Besides, the “EC50 (read off the curve)” value in test [7] is around 0.02 µg/mL. Also, the EC50 in test [4] was 0.208 µg/mL.

B10: humanized antibody hu4B5-V7 (antibody, human IgG1, kappa, V domains shown)
VH: QVQLKESGPGLVKPSETLSLTCTVSGFSLTSYGLHWFRQPPGKGLEWIGVIWSGGSTDYNAAFISRVTISKEDSKSQVSLKLSSVTAADTAVYYCAREEYDVWGQGTTVTVSS
VL: DIQMTQSPSSLSASVGDRVTITCRASQDISNYLNWYQQKPGGVPKLLIYYTSRLHSGVPSRFSGSGSGTDYTLTISSLQPEDVATYYCQQGNTLPWTFGGGTKVEIKR
Regarding B10, the IC50 in test [1] amounted to 0.725 nM. Moreover, the “EC50 (nM), activation of reporter gene (luciferase, Jurkat-NF-Kb luc-hOX40 cells with Raji cells, anti-CD3 coated)” value in test [2] came to 0.341 nM. Besides, in test [3], the Kd (usually the concentration at which binding is half-saturated) turned out to be 2.81 nM, the koff was found to be 0.000369 s⁻¹ and the kon came out at 131000 M⁻¹ s⁻¹. In test [4], the EC50 worked out at 0.254 µg/mL.

B11: humanized antibody 2G3-hu6 (antibody, human IgG1, V domains shown)
VH: B4 VH
VL: B2 VL with G41D, K42Q, A43S, Y49I
notes: hu2G3 VH1.2 + hu2G3 VL1
For B11, in test [4], the 50% effective concentration (EC50) was determined as 0.82 µg/mL.

B12: humanized antibody 2G3-hu2 (antibody, human IgG1, V domains shown)
VH: QVQLQESGPGLVKPSETLSLTCTVSGGSISRYSVHWIRQPPGKGLEWIGMIWDGGNTDYNSALKSRVTISVDTSKNQFSLKLSSVTAADTAVYYCARNPLYFSYAMDYWGQGTLVTVSS
VL: B2 VL with G41D, K42Q, A43S, Y49I
notes: hu2G3 VH2 + hu2G3 VL1
In the case of B12, the EC50 in test [4] stood at 1.6 µg/mL.

B13: humanized antibody 2G3-hu4 (antibody, human IgG1, V domains shown)
VH: B12 VH
VL: B2 VL
notes: hu2G3 VH2 + hu2G3 VL2
As to B13, in test [4], the half-maximal effective concentration (EC50) was 2.27 µg/mL.
